Experiments:
[1] = target: neuraminidase of A/Moscow/10/1999 (H3N2), recombinant head domain (influenza A virus A/Moscow/10/1999 (H3N2))
[2] = target: neuraminidase of A/cattle/Texas/56283/2024 (H5N1), recombinant head domain (influenza A virus A/cattle/Texas/56283/2024 (H5N1))

B1: HB420 (human IgG1) (antibody, V domains shown)
VH: EVQLVESGAEVKKPGSSVKVSCMASGGSFGSYGFSWVRQAPGQGLEWMGGIIPLFDTPNYAQKFQGRVTITADASTSTVYMELSSLRSEDTAVYYCARDSLPYGDQNYYYGMHVWGQGTTVTVSS
VL: QSALTQPASLSGSPGQSITISCSGSSSDIGDYNYVSWYQQHPGKAPKLIIYDVTNRPSGVSDRLSGSKSGTTASLTISGLQAEDEADYYCSSYGGNYNLVFGGGTKLTVL
NA inhibition of recombinant NA by enzyme-linked lectin assay (ELLA), IC50 [1]: 0.19 µg/mL
NA inhibition of recombinant NA by enzyme-linked lectin assay (ELLA), IC50 [2]: 50 µg/mL

From doi:10.1101/2025.06.20.660733
